In PMC5885369, “2-Oxoglutarate regulates binding of hydroxylated hypoxia-inducible factor to prolyl hydroxylase domain 2† †Electronic supplementary information (ESI) available: Details of experimental procedures and additional experiments. See DOI: 10.1039/c8cc00387d” (Chemical Communications (Cambridge, England), 2018):
Square brackets hold non-standard residues; d marks the D form. Ends that are not written are not given here. Hyp = O=C(O)[C@@H]1C[C@@H](O)CN1

Target: T1, prolyl hydroxylase domain 2, PHD2_(181–426) (human, UniProt Q9GZT9 181-426)
T1 construct: Used apo, or with Fe(II), Zn(II), 2OG, succinate or fumarate; also called tPHD2; apo-tPHD2; source: recombinantly expressed
Test: ITC; apo-tPHD2
Conditions: both partners purified

T1 sequence (Q9GZT9 181-426): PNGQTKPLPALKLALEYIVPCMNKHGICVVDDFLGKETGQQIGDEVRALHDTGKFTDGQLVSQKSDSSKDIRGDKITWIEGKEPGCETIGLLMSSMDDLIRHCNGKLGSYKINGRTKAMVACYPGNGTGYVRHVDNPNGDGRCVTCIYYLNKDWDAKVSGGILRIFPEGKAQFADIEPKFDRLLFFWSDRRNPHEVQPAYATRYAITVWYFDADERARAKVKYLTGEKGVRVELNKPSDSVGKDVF

Kd: 4.6 ± 1.4 µM
B1: hydroxylated 19-mer HIF-1α CODD peptide (peptide)
chain: DLDLEMLA[Hyp]YIPMDDDFQL
